Data published in patent US20180162952A1.
Values joined by “and” are separate entries in the source; they are usually repeats but may differ in a detail not shown here. Identical values can stand only once.

Assays:
[1] = biological target: human PTK7 on non-engineered cells (human), Q13308; assay: cell-based or functional assay
[2] = biological target: human PTK7 on non-engineered cells (human) (UniProt Q13308); assay: cell-based or functional assay

Binder	EC50, saporin (Fab-ZAP) cell killing, G401 Cells [1] [pM]	EC50, saporin (Fab-ZAP) cell killing, HEK293T Cells [1] [pM]	EC50, saporin (Fab-ZAP) cell killing, G401 Cells [2] [pM]	EC50, saporin (Fab-ZAP) cell killing, HEK293T Cells [2] [pM]	elimination of BR13 and BR64 breast NTX tumor cells, antibody at 0.2 nM with Fab-ZAP [2]
SC6.58 (antibody, V domains shown) VH: EVKLLESGGGLVQPGGSLKLSCAASGFDFSRYWMSWVRQAPGKGLEWIGDLNPDSSAINYTPSLKDKFIISRDNAKNTLYLQMSKVRSEDTALYYCTLITTLVPYTMDFWGQGTSVTVSS VL: ETTVTQSPASLSMAIGEKVTIRCITNTDIDDDMNWYQQKPGEPPKLLISEGNGLRPGVPSRFSSSGYGTDFVFTIENMLSEDVADYYCLQSDNLPLTFGSGTKLEIK	35.1	86.8			
SC6.23 (antibody, V domains shown) VH: QVTLKESGPGILKPSQTLSLTCSFSGFSLSTSNMGVGWIRQPSGKGLEWLAHIWWDDDKYYNPSLKSQLTISKDTSRNQVFLKITSVDTEDTATYYCVRSNYGYAWFAYWGQGTLVTVSA VL: DIKMTQSPSSMYASLGERVTITCKASQDIYPYLNWFQQKPGKSPKTLIYRTNRLLDGVPSRFSGSGSGQDYSLTISSLDYEDMGIYYCLQYDEFPLTFGAGTKLELK	2.6	3			
SC6.24 (antibody, V domains shown) VH: QVQLQQSGPEVVRPGVSVKISCKGSGYTFTDYAVHWVKLSHAKSLEWIGVISTYNDYTYNNQDFKGKATMTVDKSSSTAYMELARLTSEDSAIYYCARGNSYFYALDYWGQGTSVTVSS VL: DIVLTQSPASLAVSLGQRATISCRASESVDSYGKSFMHWYQQRPGQPPKLLIYRASNLESGIPARFSGSGSRTDFTLTINPVEADDVATYYCQQSNEDPWTFGGGTKLEIK	6.7	11			
SC6.21 (antibody, V domains shown) VH: SDVQLQESGPGLVKPSQTLSLTCSVPDYSITSDYHWHWIRQFPGNKLEWMGYISSRGSTNYNPSLKNRISITHDTSENQFFLKLTSVTTEDSATYYCAGLSQLALDYWGQGTTLTVSS VL: DIVMSQSPSSLAVSVGEKVTLSCKSSQSLLYSSTQNNYLAWYQQTPGQSPKLLIYWASTRESGVPDRFTGSGSGTDFTLTISSVKAEDLAVYYCQQYYSYPWTFGGGTKLEIK	200				
SC6.41 (antibody, V domains shown) VH: EVQLQQSGAESVRSGASVKLSCTASGLNIKDYYMHWVNLRPEQGLEWIGWIDPENGDTEYAPEFQGKATMTADTSSNTAYLQLSSLTSEDTAVYYCNACNYGSAYGYWGQGTTLTVSS VL: DIVLTQATPSVPVTPGESVSISCRSSKSLLHTKGDTYLYWFLQRPGQSPQLLIYRMSNLASGVPDRFSGSGSGTVFTLRISRVEAEDVGVYYCMQHLEYPFTFGSGTKLEIKR	2.6	5.7			
SC6.2.35 (antibody, V domains shown) VH: QVQMQQSGAELMKPGASVKLSCKATGYTFTGYWIEWVKQRPGHGLEWIGEILPGSGRSNSNEKFKGKATFTADTSSNTAYMQLSSLTTEDSAIYYCARGKLSWGQGTLVTVSA VL: DIVLTQSPASLAVSLGQRATISCRASESVDSFGNSFMHWYQQKPGQPPKLLIYAASNLGSGVPARFSGSGSGTDFSLNIHPVEEDDSAMYFCQQSKEVPRTFGGGSRLEIKR			1.1	0.45	70% and 80%
